The target of assay [1] is T1, hMC1-r (Homo sapiens, UniProt Q01726).
T1 construct: expressed in transfected cells; host or cells: COS-7 cells, transient (DEAE-Dextran)
Kind of assay: Scatchard Analysis on MC1-r transfected COS7 cells with AP-Ag. The following applies: culture supernatant containing up to 30 nM AP-Ag, estimated. In kind it is binding. The protocol: (§1) COS-7 cells were transfected with hMC1-r or hMC4-r by the DEAE-Dextran method. A plasmid containing the Adenovirus VA1 and VA2 RNA genes was used to co-transfect the COS cells to enhance transient protein expression by increasing translational initiation. The MC4-r and the VA½ cDNA plasmids were used at a ratio of 10 to 1. Control plates received the VA½ plasmid alone. 48 hours post-transfection, the cells were rinsed and culture supernatant containing 15 nm of AP-Ag was added. AP-Ag is a truncated agouti protein, containing the cysteine-rich domain tagged with the alkaline phosphatase at its N-terminal. Binding of AP-Ag to transfected cells proceeded at room temperature for 90 minutes with gentle rocking. The cells were then washed 7 times before fixing and color development using NBT/BCIP substrate.
To assess the affinity of the agouti protein for the MC1-R receptor, a Scatchard Analysis was performed on MC1-r transfected COS7 cells using culture supernatant containing up to 30 nM AP-Ag. The Kd has been estimated at 20-30 nM range.

In assay [2] the target is T2, Human melanocortin receptor 4 (hMC4-r) (Homo sapiens, UniProt P32245).
T2 construct: expressed in transfected cells
The assay is described as follows: Intracellular cAMP level in 293/MC4-R stable clones with agouti protein. In kind it is cell-based. The following applies: 5 nM agouti protein; 293/MC4-R line relative to the parental 293 cell line. The protocol: Human melanocortin receptor 4 (hMC4-r) cDNA, under the control of the CMV promoter, was transfected into the 293 cell line, and stable clones were selected (293/MC4-R). The stable clones were tested for reduction in intracellular cAMP levels in the presence of 5 nM agouti protein.
When 5 nM agouti protein was added to the 293/MC4-R line, an 18% reduction of intracellular cAMP level, relative to the parental 293 cell line, was observed.
In general terms: Cyclic AMP is a second messenger, typically raised through Gs and lowered through Gi signalling.

Assay [3] deals with T1, hMC1-r. The assay is described as follows: Direct binding of AP-Ag to hMC1-r transfected COS-7 cells (AP staining). The settings on record: 15 nm AP-Ag, room temperature, 90 minutes; transfection efficiency typically 12-16%. The protocol:
as §1
(§2) N-terminal truncated agouti protein, containing only the cysteine-rich C-terminal domain, retains the antagonizing activity of the full-length agouti. […]
(§3) The transfection efficiency, as monitored by β-galactosidase reporter plasmid, typically was 12-16%. 10-13% of the MC1-r transfected and 3-4% of the MC4-r transfected COS7 cells bound the agouti protein as determined by AP staining. […]

A further assay addresses T3, hMC4-r (Homo sapiens, UniProt P32245).
T3 construct: expressed in transfected cells; host or cells: COS-7 cells, transient (DEAE-Dextran), co-transfected with Adenovirus VA1/VA2 RNA plasmid
The assay is described as follows: Direct binding of AP-Ag to hMC4-r transfected COS-7 cells (AP staining). The settings on record: 15 nm AP-Ag, room temperature, 90 minutes; transfection efficiency typically 12-16%. The procedure:
as §1, §2, §3

T1 sequence (Q01726 whole entry): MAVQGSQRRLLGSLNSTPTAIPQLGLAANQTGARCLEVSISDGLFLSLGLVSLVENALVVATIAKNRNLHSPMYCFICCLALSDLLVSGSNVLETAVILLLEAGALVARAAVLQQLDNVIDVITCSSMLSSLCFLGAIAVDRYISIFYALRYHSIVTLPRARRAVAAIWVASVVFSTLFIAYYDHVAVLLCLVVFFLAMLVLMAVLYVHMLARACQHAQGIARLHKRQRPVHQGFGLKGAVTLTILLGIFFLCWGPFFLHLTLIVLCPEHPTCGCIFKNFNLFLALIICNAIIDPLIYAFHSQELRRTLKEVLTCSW
T2 sequence (P32245 whole entry): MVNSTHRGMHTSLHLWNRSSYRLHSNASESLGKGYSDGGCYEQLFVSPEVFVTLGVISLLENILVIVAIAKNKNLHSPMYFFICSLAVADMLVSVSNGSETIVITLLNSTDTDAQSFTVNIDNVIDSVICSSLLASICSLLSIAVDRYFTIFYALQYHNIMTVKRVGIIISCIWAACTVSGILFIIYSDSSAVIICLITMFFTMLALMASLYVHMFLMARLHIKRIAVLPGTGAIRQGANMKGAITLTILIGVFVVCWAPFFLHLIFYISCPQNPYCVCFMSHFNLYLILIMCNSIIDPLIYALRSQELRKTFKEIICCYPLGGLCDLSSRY
T3 sequence (P32245 whole entry): as above

As usually defined, the Kd is the concentration at which binding is half-saturated. Regarding “AP-Ag: truncated agouti protein, containing the cysteine-rich domain tagged with the alkaline phosphatase at its N-terminal”, the Kd with hMC1-r [1] was 20 to 30 nM.

B1: agouti protein: gene product expressed in mice, involved in coat color and obesity when ectopically expressed; antagonizes melanocortin receptors (protein)
chain: HLALEETLGDDRSLRSNSSMNSLDFSSVSIVALNKKSKKISRKEAEKRKRSSKKKASMKKVARPPPPSPCVATRDSCKPPAPACCDPCASCQCRFFGSACTCRVLNPNC
On to B1, for which the “reduction of intracellular cAMP level” value in assay [2] amounted to 18%. In the assay with hMC1-r [3], the “MC1-r transfected COS7 cells that bound the agouti protein as determined by AP staining” value is reported as 10-13%. In addition, the “MC4-r transfected COS7 cells that bound the agouti protein as determined by AP staining” value with hMC4-r is listed as 3-4%.

The values above are taken from patent US20080009438A9, “Screening methods for compounds useful in the regulation of body weight” (Millennium Pharmaceuticals, Inc., priority 1996, published 2008).
